Data set [1] is described as follows: immunoblot of B7-H3, SW480 and HCT-8. Conditions: glycan changed form; control: control siRNA / untreated cells. In general terms: Immunoblotting shows a protein as a band on a membrane.
The nature of data set [2]: immunofluorescence colocalization, Pearson's R. The following applies: glycan changed form; control: control siRNA / untreated cells.
Data set [3] is described as follows: cell surface biotinylation, membrane-fraction immunoblot. Conditions: glycan changed form; control: control siRNA.
Data set [4] in a line: CHX chase, B7-H3 remaining by immunoblot. The following applies: glycan changed form; control: control siRNA.

B1: B7-H3 (CD276): FDW028 (FUT8 inhibitor) (protein)
parent chain: MLRRRGSPGMGVHVGAALGALWFCLTGALEVQVPEDPVVALVGTDATLCCSFSPEPGFSLAQLNLIWQLTDTKQLVHSFAEGQDQGSAYANRTALFPDLLAQGNASLRLQRVRVADEGSFTCFVSIRDFGSAAVSLQVAAPYSKPSMTLEPNKDLRPGDTVTITCSSYQGYPEAEVFWQDGQGVPLTGNVTTSQMANEQGLFDVHSILRVVLGANGTYSCLVRNPVLQQDAHSSVTITPQRSPTGAVEVQVPEDPVVALVGTDATLRCSFSPEPGFSLAQLNLIWQLTDTKQLVHSFTEGRDQGSAYANRTALFPDLLAQGNASLRLQRVRVADEGSFTCFVSIRDFGSAAVSLQVAAPYSKPSMTLEPNKDLRPGDTVTITCSSYRGYPEAEVFWQDGQGVPLTGNVTTSQMANEQGLFDVHSVLRVVLGANGTYSCLVRNPVLQQDAHGSVTITGQPMTFPPEALWVTVGLSVCLIALLVALAFVCWRKIKQSCEEENAGAEDQDGEGEGSKTALQPLKHSDSKEDDGQEIA
For the protein B1, the expression_or_secretion result in data set [1] is listed as “decreases”. The localisation_or_trafficking result in data set [2] is “increases”.

B2: B7-H3 (CD276): FUT8 siRNA (protein)
parent chain: B1 parent chain
On to B2, for which the expression_or_secretion entry in data set [3] and in data set [1] was “decreases” in each case. Further, the localisation_or_trafficking entry in data set [2] is reported as “increases”. In data set [4], the degradation_or_half_life entry is on record as “decreases”.

Values taken from paper PMC10400579, “FDW028, a novel FUT8 inhibitor, impels lysosomal proteolysis of B7-H3 via chaperone-mediated autophagy pathway and exhibits potent efficacy against metastatic colorectal cancer” (Cell Death & Disease, 2023).
